Blank lines part the entries; values can stand above or below the binder they belong to.
Experiments:
[1] = molecular target: T1, Recombinant human NKp46, His Tag (human NKp46 ECD antigen, aa. 22-254, his-tagged) (human, UniProt O76036 22-255); assay: ELISA on coated NKp46-His, and BLI with antibody on anti-human IgG Fc probe and 11 nM NKp46-His
T1 construct: also called NKp46 extracellular domain (ECD); Acrobiosystems #NC1-H52H4; not shown: His tag

[2] = molecular target: T2, human NKp46 expressed on cells (primary human NK cells; CHOK1-hNKp46 cells) (human, UniProt O76036 22-304); assay: flow cytometry on primary human NK cells, rabbit IgG, anti-rabbit IgG FITC
T2 construct: whole, on cells; also called cell surface expressed NKp46; NCR1
T2 sequence (O76036 22-304): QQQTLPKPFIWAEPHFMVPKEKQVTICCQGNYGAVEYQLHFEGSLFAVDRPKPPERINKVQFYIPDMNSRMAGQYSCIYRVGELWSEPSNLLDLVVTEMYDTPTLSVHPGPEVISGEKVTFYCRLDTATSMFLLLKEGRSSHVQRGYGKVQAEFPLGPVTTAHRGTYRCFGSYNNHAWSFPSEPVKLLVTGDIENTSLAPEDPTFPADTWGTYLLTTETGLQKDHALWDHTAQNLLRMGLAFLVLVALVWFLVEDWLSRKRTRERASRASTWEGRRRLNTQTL

T1 sequence (O76036 other isoform, or with tags, fused parts or gaps): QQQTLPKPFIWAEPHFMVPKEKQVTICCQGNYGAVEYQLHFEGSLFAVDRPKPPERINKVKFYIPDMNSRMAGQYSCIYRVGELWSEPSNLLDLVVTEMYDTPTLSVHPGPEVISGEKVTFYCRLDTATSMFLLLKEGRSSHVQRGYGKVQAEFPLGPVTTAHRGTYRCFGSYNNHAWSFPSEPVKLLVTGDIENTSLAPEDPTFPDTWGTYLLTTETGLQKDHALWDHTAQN

B1: ch3-7 (antibody, human IgG1, kappa, V domains shown)
VH: QSLEESGGRLVTPGTPLTLTCTVSGFSPSSYYMSWVRQAPGKGLEYIGIIFSGGSTWYASWAKGRVTISRTSTTVDLKMTSLTTEDTATYFCARGDAVGSGYWGLWGPGTLVTVSS
VL: AFELTQTPSSVEAAVGGTVTINCQASQDIYIYLAWYQQKPGQPPKLLIYSASTLASGVSSRFTGSRSGTQFTLTISDLEPADAATYYCQSYDGTSNTGFGGGTEVVVRR
notes: Chimeric rabbit/human IgG1; also called chimeric anti-NKp46 antibody ch3-7
binding result [1]: binds

B2: rabbit anti-NKp46 clone 3-7 (expressed and purified as rabbit IgG) (antibody, V domains shown)
VH: B1 VH
VL: AFELTQTPSSVEAAVGGTVTINCQASQDIYIYLAWYQQKPGQPPKLLIYSASTLASGVSSRFTGSRSGTQFTLTISDLEPADAATYYCQSYDGTSNTGFGGGTEVVVR
notes: Rabbit IgG
binding result [2]: binds

The next lines start with the values.

binding result [1]: binds
B3: ch5-13 (antibody, human IgG1, kappa, V domains shown)
VH: QSVEESGGRLVTPGTPLTLTCTVSGFSLSSYHMSWVRQAPGKGLEWIGYILANTDSYYANWAKGRFTISKTSTTVDLKITSPTTEDTATYFCARYDNHDAAYSTLWGPGTLVTVSS
VL: AYDMTQTPASVEVAVGGTVTIKCQASQSISTALAWYQQKPGQPPKLLIYKASTLASGVSSRFKGSGSGTQFTLTISGVEPADAATYYCQQGYSRSNVDNVFGGGTEVVVKR
notes: Chimeric rabbit/human IgG1; also called chimeric anti-NKp46 antibody ch5-13

binding result [2]: binds
B4: rabbit anti-NKp46 clone 5-13 (expressed and purified as rabbit IgG) (antibody, V domains shown)
VH: B3 VH
VL: AYDMTQTPASVEVAVGGTVTIKCQASQSISTALAWYQQKPGQPPKLLIYKASTLASGVSSRFKGSGSGTQFTLTISGVEPADAATYYCQQGYSRSNVDNVFGGGTEVVVK
notes: Rabbit IgG

Source: patent EP4713370A2 (dated 2026)
